Assay [1] has as its target CD28 on Jurkat T cells (UniProt P10747). In words: cell-based or functional assay.
Assay [2] concerns the target LFA-1 on Jurkat T cells (UniProt P20701). Briefly: cell-based or functional assay.

LFA-1 on Jurkat T cells, sequence (P20701 26-1170 limits assumed, chain 1 of 2): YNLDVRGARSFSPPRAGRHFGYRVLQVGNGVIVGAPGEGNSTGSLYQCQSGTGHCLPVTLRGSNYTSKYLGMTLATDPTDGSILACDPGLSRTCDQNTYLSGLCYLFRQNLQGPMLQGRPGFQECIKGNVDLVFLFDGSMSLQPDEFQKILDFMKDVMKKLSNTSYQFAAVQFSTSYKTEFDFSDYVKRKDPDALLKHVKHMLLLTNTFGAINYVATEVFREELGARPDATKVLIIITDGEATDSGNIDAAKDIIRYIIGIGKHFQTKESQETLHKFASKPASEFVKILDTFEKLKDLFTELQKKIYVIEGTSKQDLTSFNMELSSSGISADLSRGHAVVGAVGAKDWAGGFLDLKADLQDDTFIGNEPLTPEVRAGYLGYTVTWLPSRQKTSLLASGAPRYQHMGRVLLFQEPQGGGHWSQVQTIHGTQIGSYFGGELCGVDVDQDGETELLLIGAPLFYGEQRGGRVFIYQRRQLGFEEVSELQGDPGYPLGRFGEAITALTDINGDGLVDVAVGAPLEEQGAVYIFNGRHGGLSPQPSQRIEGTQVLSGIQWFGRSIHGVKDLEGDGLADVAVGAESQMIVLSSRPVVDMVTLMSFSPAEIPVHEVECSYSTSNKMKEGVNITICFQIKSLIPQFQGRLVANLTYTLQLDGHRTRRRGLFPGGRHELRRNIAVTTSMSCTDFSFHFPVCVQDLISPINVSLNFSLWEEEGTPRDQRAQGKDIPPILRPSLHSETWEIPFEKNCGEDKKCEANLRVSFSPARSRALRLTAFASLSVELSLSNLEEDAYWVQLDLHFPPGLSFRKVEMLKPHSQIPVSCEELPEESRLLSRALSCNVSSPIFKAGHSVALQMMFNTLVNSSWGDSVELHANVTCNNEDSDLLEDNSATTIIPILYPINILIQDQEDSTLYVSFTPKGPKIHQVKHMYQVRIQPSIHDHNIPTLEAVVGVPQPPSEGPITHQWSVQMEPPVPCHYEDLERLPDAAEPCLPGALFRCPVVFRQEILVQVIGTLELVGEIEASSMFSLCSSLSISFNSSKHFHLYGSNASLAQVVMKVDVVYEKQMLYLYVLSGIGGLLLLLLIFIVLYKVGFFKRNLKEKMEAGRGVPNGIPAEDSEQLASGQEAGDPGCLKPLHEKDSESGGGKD
LFA-1 on Jurkat T cells, sequence (P05107 23-769 limits assumed, chain 2 of 2, further chain): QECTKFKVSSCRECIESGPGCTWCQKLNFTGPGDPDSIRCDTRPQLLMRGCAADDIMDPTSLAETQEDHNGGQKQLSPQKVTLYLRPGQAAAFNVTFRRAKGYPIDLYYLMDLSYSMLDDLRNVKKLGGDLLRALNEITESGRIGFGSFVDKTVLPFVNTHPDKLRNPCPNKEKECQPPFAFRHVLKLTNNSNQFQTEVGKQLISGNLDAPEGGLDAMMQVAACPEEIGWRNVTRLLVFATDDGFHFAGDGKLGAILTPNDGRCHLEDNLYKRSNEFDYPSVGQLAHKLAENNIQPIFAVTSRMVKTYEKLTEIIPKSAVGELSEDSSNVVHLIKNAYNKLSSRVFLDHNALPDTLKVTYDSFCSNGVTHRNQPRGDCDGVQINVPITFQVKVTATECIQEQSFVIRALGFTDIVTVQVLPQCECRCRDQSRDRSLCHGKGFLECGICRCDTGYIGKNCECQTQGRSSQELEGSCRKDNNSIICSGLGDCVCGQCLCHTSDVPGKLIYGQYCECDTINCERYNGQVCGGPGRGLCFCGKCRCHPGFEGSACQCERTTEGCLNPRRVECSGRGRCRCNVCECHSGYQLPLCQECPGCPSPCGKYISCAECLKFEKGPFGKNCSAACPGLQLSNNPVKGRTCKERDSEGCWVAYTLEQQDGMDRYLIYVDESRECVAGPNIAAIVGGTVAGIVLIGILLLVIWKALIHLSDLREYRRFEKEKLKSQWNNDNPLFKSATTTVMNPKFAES

Consider “GPI-tethered extracellular domain of human B7-1 expressed from pYBS101 (from UniProt P33681 35-242) (ligand)”, for which the Jurkat T cell adhesion to MembraneChip (fold against the control) in assay [1] turned out to be 4.

Turning to “GPI-tethered extracellular domain of human ICAM-1 expressed from pYBS101 (from UniProt P05362 28-480) (ligand)”, the Jurkat T cell adhesion to MembraneChip (fold against the control) in assay [2] amounted to 3.

For the origin of these results see US20090226960A1.
